{"source": "paper PMC10514313", "about": "“Identification of enzymatic functions of osmo-regulated periplasmic glucan biosynthesis proteins from Escherichia coli reveals a novel glycoside hydrolase family” (Communications Biology, 2023)", "key": {"EcOpgD": {"target": "T1, EcOpgD (Escherichia coli, UniProt P40120, D388N)", "T1 construct": "gene mdoD; 60601 Da; homodimer, Loop A of the other subunit completes the site", "T1 sequence (P40120 33-551 D388N)": "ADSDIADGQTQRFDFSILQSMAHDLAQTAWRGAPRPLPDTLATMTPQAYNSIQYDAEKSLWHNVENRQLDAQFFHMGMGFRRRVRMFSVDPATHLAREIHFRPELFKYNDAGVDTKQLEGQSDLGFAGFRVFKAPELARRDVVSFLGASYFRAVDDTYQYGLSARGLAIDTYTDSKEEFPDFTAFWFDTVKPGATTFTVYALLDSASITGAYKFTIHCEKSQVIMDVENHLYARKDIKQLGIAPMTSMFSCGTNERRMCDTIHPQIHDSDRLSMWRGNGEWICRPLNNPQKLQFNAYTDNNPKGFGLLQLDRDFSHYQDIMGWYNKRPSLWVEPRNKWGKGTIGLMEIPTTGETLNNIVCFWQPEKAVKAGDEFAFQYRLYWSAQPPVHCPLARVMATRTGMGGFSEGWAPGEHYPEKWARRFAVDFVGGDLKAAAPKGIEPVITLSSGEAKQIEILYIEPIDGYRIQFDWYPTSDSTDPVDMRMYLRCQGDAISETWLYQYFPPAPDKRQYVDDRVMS", "experiment": "X-ray crystal structure of the complex ([…] Å)", "type": "binding", "details": "co-crystallised with β-1,2-glucan of average DP 121, Sop13 is the part seen in density (chain B; DP11 in chain A); pH 4.0; subsites -7 to +6; Table 3 prints the mutant as D378N"}, "EcOpgG": {"target": "T2, EcOpgG (Escherichia coli, UniProt P33136, D361N)", "T2 construct": "gene mdoG; 56543 Da; homodimer", "T2 sequence (P33136 23-511 D361N)": "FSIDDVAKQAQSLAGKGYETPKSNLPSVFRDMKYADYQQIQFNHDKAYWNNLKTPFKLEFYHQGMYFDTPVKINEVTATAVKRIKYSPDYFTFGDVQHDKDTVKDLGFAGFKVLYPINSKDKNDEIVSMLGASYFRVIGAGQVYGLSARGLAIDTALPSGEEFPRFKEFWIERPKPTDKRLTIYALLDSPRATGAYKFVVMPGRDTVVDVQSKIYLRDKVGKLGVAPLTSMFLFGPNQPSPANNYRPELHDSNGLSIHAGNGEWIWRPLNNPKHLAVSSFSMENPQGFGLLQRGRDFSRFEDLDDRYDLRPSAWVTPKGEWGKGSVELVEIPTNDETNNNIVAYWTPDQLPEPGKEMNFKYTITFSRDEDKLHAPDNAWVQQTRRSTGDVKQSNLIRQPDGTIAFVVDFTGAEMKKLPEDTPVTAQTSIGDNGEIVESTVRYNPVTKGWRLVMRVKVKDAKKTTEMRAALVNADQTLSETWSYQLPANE", "experiment": "X-ray crystal structure of the complex ([…] Å)", "type": "binding", "details": "crystallised and soaked with β-1,2-glucan of average DP 17.7, Sop16 is the part seen in density; pH 5.0"}, "[1]": {"target": "the molecule itself", "experiment": "SEC; Superdex 200GL (24 ml), 20 mM Tris-HCl pH 7.5, 100 mM NaCl, 0.5 mg/mL protein loaded, 0.3 mL/min; molecular weight from marker proteins"}, "[2]": {"target": "the molecule itself", "experiment": "crystal structure; ligand-free EcOpgD D388N, 2.95 Å, 12 monomers (six dimers) in the asymmetric unit; 0.1 M Tris-HCl pH 8.5, 0.1 M trimethylamine-N-oxide, 17% PEG 2000 MME, 20 °C"}, "[3]": {"target": "the molecule itself", "experiment": "crystal structure; EcOpgG D361N with β-1,2-glucan, 1.81 Å, one chain in the asymmetric unit, dimer with a symmetry mate; 0.1 M MMT pH 5.0, 27% PEG 400, 20 °C"}}, "data": [{"molecule": "OC[C@H]1O[C@@H](O[C@H]2[C@H](O[C@H]3[C@H](O[C@H]4[C@H](O[C@H]5[C@H](O[C@H]6[C@H](O[C@H]7[C@H](O[C@H]8[C@H](O[C@H]9[C@H](O[C@H]%10[C@H](O[C@H]%11[C@H](O[C@H]%12[C@H](O[C@H]%13C(O)O[C@H](CO)[C@@H](O)[C@@H]%13O)O[C@H](CO)[C@@H](O)[C@@H]%12O)O[C@H](CO)[C@@H](O)[C@@H]%11O)O[C@H](CO)[C@@H](O)[C@@H]%10O)O[C@H](CO)[C@@H](O)[C@@H]9O)O[C@H](CO)[C@@H](O)[C@@H]8O)O[C@H](CO)[C@@H](O)[C@@H]7O)O[C@H](CO)[C@@H](O)[C@@H]6O)O[C@H](CO)[C@@H](O)[C@@H]5O)O[C@H](CO)[C@@H](O)[C@@H]4O)O[C@H](CO)[C@@H](O)[C@@H]3O)O[C@H](CO)[C@@H](O)[C@@H]2O)[C@H](O)[C@@H](O)[C@@H]1O", "note": "(stereo partly drawn) [Sop13]", "values": [{"measurement": "X-ray crystal structure of the complex (2.06 Å)", "setting": "EcOpgD", "result": "electron densities of β-1,2-glucans with DP11 and DP13 (Sop11 and Sop13, respectively) were clearly observed"}]}, {"molecule": "OC[C@H]1O[C@@H](O[C@H]2[C@H](O[C@H]3[C@H](O[C@H]4[C@H](O[C@H]5[C@H](O[C@H]6[C@H](O[C@H]7[C@H](O[C@H]8[C@H](O[C@H]9[C@H](O[C@H]%10[C@H](O[C@H]%11[C@H](O[C@H]%12[C@H](O[C@H]%13[C@H](O[C@H]%14[C@H](O[C@H]%15[C@H](O[C@H]%16C(O)O[C@H](CO)[C@@H](O)[C@@H]%16O)O[C@H](CO)[C@@H](O)[C@@H]%15O)O[C@H](CO)[C@@H](O)[C@@H]%14O)O[C@H](CO)[C@@H](O)[C@@H]%13O)O[C@H](CO)[C@@H](O)[C@@H]%12O)O[C@H](CO)[C@@H](O)[C@@H]%11O)O[C@H](CO)[C@@H](O)[C@@H]%10O)O[C@H](CO)[C@@H](O)[C@@H]9O)O[C@H](CO)[C@@H](O)[C@@H]8O)O[C@H](CO)[C@@H](O)[C@@H]7O)O[C@H](CO)[C@@H](O)[C@@H]6O)O[C@H](CO)[C@@H](O)[C@@H]5O)O[C@H](CO)[C@@H](O)[C@@H]4O)O[C@H](CO)[C@@H](O)[C@@H]3O)O[C@H](CO)[C@@H](O)[C@@H]2O)[C@H](O)[C@@H](O)[C@@H]1O", "note": "(stereo partly drawn) [Sop16]", "values": [{"measurement": "X-ray crystal structure of the complex (1.81 Å)", "setting": "EcOpgG", "result": "In the catalytic pocket of the complex, the electron density of a Sop16 molecule was observed"}]}, {"molecule": "OpgD from E. coli (EcOpgD), wild type, without signal sequence, C-terminal His6-tag (enzyme, Escherichia coli, UniProt P40120 33-551, looked up, OpgD (glucans biosynthesis protein D) of Escherichia coli, gene amplified from a colony of E. coli BL21(DE3), GenBank CAQ31910.2; theoretical mass 60601 Da; Cloned between the XhoI and NdeI sites of pET30a; also called MdoD; source: E. coli BL21(DE3), purified (HisTrap FF crude)) ADSDIADGQTQRFDFSILQSMAHDLAQTAWRGAPRPLPDTLATMTPQAYNSIQYDAEKSLWHNVENRQLDAQFFHMGMGFRRRVRMFSVDPATHLAREIHFRPELFKYNDAGVDTKQLEGQSDLGFAGFRVFKAPELARRDVVSFLGASYFRAVDDTYQYGLSARGLAIDTYTDSKEEFPDFTAFWFDTVKPGATTFTVYALLDSASITGAYKFTIHCEKSQVIMDVENHLYARKDIKQLGIAPMTSMFSCGTNERRMCDTIHPQIHDSDRLSMWRGNGEWICRPLNNPQKLQFNAYTDNNPKGFGLLQLDRDFSHYQDIMGWYNKRPSLWVEPRNKWGKGTIGLMEIPTTGETLDNIVCFWQPEKAVKAGDEFAFQYRLYWSAQPPVHCPLARVMATRTGMGGFSEGWAPGEHYPEKWARRFAVDFVGGDLKAAAPKGIEPVITLSSGEAKQIEILYIEPIDGYRIQFDWYPTSDSTDPVDMRMYLRCQGDAISETWLYQYFPPAPDKRQYVDDRVMS", "values": [{"measurement": "stoichiometry N", "setting": "[1]", "result": 2}]}, {"molecule": "OpgG from E. coli (EcOpgG), wild type, without signal sequence, C-terminal His6-tag (enzyme, Escherichia coli, UniProt P33136 23-511, looked up, OpgG (glucans biosynthesis protein G) of Escherichia coli, gene amplified from a colony of E. coli BL21(DE3), GenBank CAQ31569.1; theoretical mass 56543 Da; Cloned between the XhoI and NdeI sites of pET30a; also called MdoG; source: E. coli BL21(DE3), purified (HisTrap FF crude)) FSIDDVAKQAQSLAGKGYETPKSNLPSVFRDMKYADYQQIQFNHDKAYWNNLKTPFKLEFYHQGMYFDTPVKINEVTATAVKRIKYSPDYFTFGDVQHDKDTVKDLGFAGFKVLYPINSKDKNDEIVSMLGASYFRVIGAGQVYGLSARGLAIDTALPSGEEFPRFKEFWIERPKPTDKRLTIYALLDSPRATGAYKFVVMPGRDTVVDVQSKIYLRDKVGKLGVAPLTSMFLFGPNQPSPANNYRPELHDSNGLSIHAGNGEWIWRPLNNPKHLAVSSFSMENPQGFGLLQRGRDFSRFEDLDDRYDLRPSAWVTPKGEWGKGSVELVEIPTNDETNDNIVAYWTPDQLPEPGKEMNFKYTITFSRDEDKLHAPDNAWVQQTRRSTGDVKQSNLIRQPDGTIAFVVDFTGAEMKKLPEDTPVTAQTSIGDNGEIVESTVRYNPVTKGWRLVMRVKVKDAKKTTEMRAALVNADQTLSETWSYQLPANE", "values": [{"measurement": "stoichiometry N", "setting": "[1]", "result": 2}]}, {"molecule": "EcOpgD D388N mutant, without signal sequence, C-terminal His6-tag (enzyme, Escherichia coli, UniProt P40120 33-551, looked up, made from the EcOpgD plasmid of m1; text and methods say D388N; source: E. coli BL21(DE3), purified (HisTrap FF crude)) ADSDIADGQTQRFDFSILQSMAHDLAQTAWRGAPRPLPDTLATMTPQAYNSIQYDAEKSLWHNVENRQLDAQFFHMGMGFRRRVRMFSVDPATHLAREIHFRPELFKYNDAGVDTKQLEGQSDLGFAGFRVFKAPELARRDVVSFLGASYFRAVDDTYQYGLSARGLAIDTYTDSKEEFPDFTAFWFDTVKPGATTFTVYALLDSASITGAYKFTIHCEKSQVIMDVENHLYARKDIKQLGIAPMTSMFSCGTNERRMCDTIHPQIHDSDRLSMWRGNGEWICRPLNNPQKLQFNAYTDNNPKGFGLLQLDRDFSHYQDIMGWYNKRPSLWVEPRNKWGKGTIGLMEIPTTGETLNNIVCFWQPEKAVKAGDEFAFQYRLYWSAQPPVHCPLARVMATRTGMGGFSEGWAPGEHYPEKWARRFAVDFVGGDLKAAAPKGIEPVITLSSGEAKQIEILYIEPIDGYRIQFDWYPTSDSTDPVDMRMYLRCQGDAISETWLYQYFPPAPDKRQYVDDRVMS", "values": [{"measurement": "binding result", "setting": "[2]", "result": "binds"}]}, {"molecule": "EcOpgG D361N mutant, without signal sequence, C-terminal His6-tag (enzyme, Escherichia coli, UniProt P33136 23-511, looked up, made from the EcOpgG plasmid of m2; One monomer in the asymmetric unit; the second chain of the dimer is a symmetry mate; source: E. coli BL21(DE3), purified (HisTrap FF crude)) FSIDDVAKQAQSLAGKGYETPKSNLPSVFRDMKYADYQQIQFNHDKAYWNNLKTPFKLEFYHQGMYFDTPVKINEVTATAVKRIKYSPDYFTFGDVQHDKDTVKDLGFAGFKVLYPINSKDKNDEIVSMLGASYFRVIGAGQVYGLSARGLAIDTALPSGEEFPRFKEFWIERPKPTDKRLTIYALLDSPRATGAYKFVVMPGRDTVVDVQSKIYLRDKVGKLGVAPLTSMFLFGPNQPSPANNYRPELHDSNGLSIHAGNGEWIWRPLNNPKHLAVSSFSMENPQGFGLLQRGRDFSRFEDLDDRYDLRPSAWVTPKGEWGKGSVELVEIPTNDETNNNIVAYWTPDQLPEPGKEMNFKYTITFSRDEDKLHAPDNAWVQQTRRSTGDVKQSNLIRQPDGTIAFVVDFTGAEMKKLPEDTPVTAQTSIGDNGEIVESTVRYNPVTKGWRLVMRVKVKDAKKTTEMRAALVNADQTLSETWSYQLPANE", "values": [{"measurement": "binding result", "setting": "[3]", "result": "binds"}]}]}
